According to patent publication US20100098709A1 (AstraZeneca / MedImmune, published 2010):

Tests used:
[1] = target: T1, HIS FLAG tagged human IL-6 (human, UniProt P05231 30-212); test: phage ELISA
T1 construct: also called HIS FLAG IL-6; FLAG-IL-6

[2] = target: T2, FLAG HIS tagged soluble IL-6Ra (human, UniProt P08887 20-358, limits assumed); test: phage ELISA
T2 construct: the key was followed; also called HIS FLAG sIL-6R; FLAG-sIL-6R
T2 sequence: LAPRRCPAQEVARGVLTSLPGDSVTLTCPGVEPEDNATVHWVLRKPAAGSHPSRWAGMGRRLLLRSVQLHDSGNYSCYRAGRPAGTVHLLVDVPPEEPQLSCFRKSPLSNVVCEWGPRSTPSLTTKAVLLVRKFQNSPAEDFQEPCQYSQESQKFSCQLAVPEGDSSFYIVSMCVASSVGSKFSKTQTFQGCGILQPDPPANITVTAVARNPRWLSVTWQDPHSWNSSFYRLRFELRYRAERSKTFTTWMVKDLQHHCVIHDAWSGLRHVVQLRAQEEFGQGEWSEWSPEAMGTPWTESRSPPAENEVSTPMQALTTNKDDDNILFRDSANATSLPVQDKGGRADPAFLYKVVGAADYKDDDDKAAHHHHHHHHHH

[3] = target: T1, HIS FLAG tagged human IL-6; test: phage ELISA, antigen on anti-FLAG plate
[4] = target: T2, FLAG HIS tagged soluble IL-6Ra; test: phage ELISA, antigen on anti-FLAG plate
[5] = target: T3, Complex 1: HIS FLAG IL-6/sIL-6R (human, UniProt P05231 30-212; P08887 20-358, limits assumed); test: phage ELISA, antigen on anti-FLAG plate
T3 construct: Non-covalent complex made by pre-incubating the two proteins; The untagged sIL-6R was bought; also called IL-6/sIL-6R complex consisting of FLAG tagged ligand and untagged receptor

[6] = target: T4, Complex 2: IL-6/HIS FLAG sIL-6R (human, UniProt P05231 30-212; P08887 20-358, limits assumed); test: phage ELISA, antigen on anti-FLAG plate
T4 construct: Non-covalent complex made by pre-incubating the two proteins; Untagged IL-6 was bought; also called IL-6/sIL-6R complex consisting of untagged ligand and FLAG tagged receptor

[7] = target: T5, FLAG HIS tagged Hyper IL-6; test: phage ELISA, antigen on anti-FLAG plate
T5 construct: also called HIS FLAG Hyper IL-6

[8] = target: T6, biotinylated anti-FLAG monoclonal antibody (Sigma F9291); test: phage ELISA, anti-FLAG treated plate alone
T6 construct: Control coat of the phage ELISA plates (streptavidin plate treated with the anti-FLAG antibody, then MPBS only); also called anti FLAG antibody treated plates alone

B1: Antibody 5 scFv (scFv, V domains shown)
VH: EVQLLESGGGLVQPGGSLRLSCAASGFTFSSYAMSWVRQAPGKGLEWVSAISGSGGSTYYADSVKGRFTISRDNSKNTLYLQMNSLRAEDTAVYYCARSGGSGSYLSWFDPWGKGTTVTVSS
VL: QSVLTQPPSVSGAPGQRVTISCTGSSSNIGAGYDVHWYQQLPGTAPKLLIYGNSNRPSGVPDRFSGSKSGTSASLAITGLQAEDEADYYCQSYDSSLSGWVFGGGTKVTVLG
notes: also called Ab 5
[1]
  binding result: no binding
[2]
  binding result: no binding
[3]
  Absorbance (450 nM): 0.065
[4]
  Absorbance (450 nM): 0.061
[5]
  Absorbance (450 nM): 0.331
[6]
  Absorbance (450 nM): 0.747
[7]
  Absorbance (450 nM): 0.833
[8]
  Absorbance (450 nM): 0.062
